The data set is described as follows: self-splicing fitness, log relative to wild type (ln ratio); higher = more splicing; Tetrahymena group I intron in knt gene, E. coli kanamycin selection, DiMSum; sequences stand for … in CUCUCU…GGAGGGAAAAGUUAUCAGGCAUGCACCUGGUAGCUAGUCUUUAAACCAAUAGAUUGCAUCGGUUUAAAAGGCAAGACCGUCAAAUUGCGGGAAAGGGGUCAACAGCCGUUCAGUACCAAGUCUCAGGGGAAACUUUGAGAUGGCCUUGCAAAGGGUAUGGUAAUAAGCUGACGGACAUGGUCCUAACCACGCAGCCAAGUCCUAAGUCAACAGAUCUUCUGUUGAUAUGGAUGCAGUUCACAGACUAAAUGUCGGUCGGGGAAGAUGUAUUCUUCUCAUAAGAUAUAGUCGGACCUCUCCUUAAUGGGAGCUAGCGGAUGAAGUGAUGCAACACUGGAGCCGCUGGGAACUAAUUUGUAUGCGAAAGUAUAUUGAUUAGUUUUGGAGUACUCGUGGUCG
In a few lines: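 A randomised library covering all eight P1ex-region intron nucleotides was built with the intron in the knt kanamycin-resistance gene on pET-22b(+) and held in E. coli BL21(DE3). Cells were grown overnight at 37°C or 30°C on LB agar, with or without 25 μg/mL kanamycin, plus 100 μg/mL carbenicillin, 50 μM IPTG and 0.2% rhamnose, and pooled colonies were amplicon-sequenced on an Illumina HiSeq 2500. DiMSum fitness is the error-weighted combination of wild-type-normalised replicate fold changes, kanamycin versus none.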

± gives the uncertainty stated by the source.

For AUGCAGCAAUAUUACGCAAA, the “self-splicing fitness (ln)” value (30 °C) is -2.6 ± 0.13 and the “self-splicing fitness (ln)” value (37 °C) is -0.0469 ± 0.14.

Take AUGCAGCAAUAUUACGCUUA: the “self-splicing fitness (ln)” value runs as follows: (30 °C) -1.26 ± 0.1; (37 °C) -0.294 ± 0.094. Turning to AUGCAGCAAUAUUACGGACU, the “self-splicing fitness (ln)” value by setting is: (30 °C) -0.194 ± 0.073; (37 °C) 0.429 ± 0.094.

As for AUGCAGCAAUAUUACGGAGA, the “self-splicing fitness (ln)” value is -4.25 ± 0.44 (30 °C) and -4.21 ± 0.34 (37 °C). On to AUGCAGCAAUAUUACGGAUA, for which the “self-splicing fitness (ln)” value reads like this: (30 °C) -2.99 ± 0.17; (37 °C) -2.22 ± 0.17. On to AUGCAGCAAUAUUACGGAUU, for which the “self-splicing fitness (ln)” value is, setting by setting: (30 °C) -1.57 ± 0.071; (37 °C) -1.14 ± 0.1. On to AUGCAGCAAUAUUACGGCGA, for which the “self-splicing fitness (ln)” value runs as follows: (30 °C) -0.313 ± 0.1; (37 °C) 0.239 ± 0.13. In the same order, the values of AUGCAGCAAUAUUACGGCUA are 0.452 ± 0.11 and 0.366 ± 0.12. In the same order, the values of AUGCAGCAAUAUUACGGGCA are -0.699 ± 0.11 and 0.227 ± 0.12. Regarding AUGCAGCAAUAUUACGUACU, the “self-splicing fitness (ln)” value (30 °C) is 0.346 ± 0.055 and the “self-splicing fitness (ln)” value (37 °C) turned out to be 0.441 ± 0.07. Regarding AUGCAGCAAUAUUACGUGGG, where the note is “37 °C”, the “self-splicing fitness (ln)” value was -2.97 ± 0.28. With AUGCAGCAAUAUUACGUUAU, the “self-splicing fitness (ln)” value (30 °C) is -2.45 ± 0.079 and the “self-splicing fitness (ln)” value (37 °C) is -1.24 ± 0.078. With AUGCAGCAAUAUUACGUUGC, the “self-splicing fitness (ln)” value was -4.01 ± 0.18 (30 °C) and -2.25 ± 0.24 (37 °C). For the sequence AUGGAGCAAUAUUACGAGGG, the “self-splicing fitness (ln)” value is -3.96 ± 0.35 (30 °C) and -2.55 ± 0.42 (37 °C). As for AUGGAGCAAUAUUACGCCUU, the “self-splicing fitness (ln)” value runs as follows: (30 °C) -2.22 ± 0.18; (37 °C) -2.41 ± 0.3.

In the case of AUGGAGCAAUAUUACGCGUG, the “self-splicing fitness (ln)” value is, setting by setting: (30 °C) -3.24 ± 0.16; (37 °C) -1.15 ± 0.14. As to AUGGAGCAAUAUUACGCUAU, the “self-splicing fitness (ln)” value is -3.89 ± 0.15 (30 °C) and -2.4 ± 0.22 (37 °C). In the same order, the values of AUGGAGCAAUAUUACGGCUU are -2.98 ± 0.29 and -1.83 ± 0.38. On to AUGGAGCAAUAUUACGGGCC, for which the “self-splicing fitness (ln)” value (30 °C) was -2.63 ± 0.39. As to AUGGAGCAAUAUUACGGGUC, the “self-splicing fitness (ln)” value reads like this: (30 °C) -4.63 ± 0.29; (37 °C) -3.52 ± 0.28. Regarding AUGGAGCAAUAUUACGGUGA, the “self-splicing fitness (ln)” value (30 °C) is -2.9 ± 0.44. As to AUGGAGCAAUAUUACGUUAC, the “self-splicing fitness (ln)” value (30 °C) is -3.1 ± 0.25.

With AUGGAGCAAUAUUACGUUGA, the “self-splicing fitness (ln)” value (37 °C) was -2.38 ± 0.2. As to AUGGAGCAAUAUUACGUUGU, the “self-splicing fitness (ln)” value reads like this: (30 °C) -2.69 ± 0.17; (37 °C) -2.48 ± 0.23.

Regarding AUGUAGCAAUAUUACGAAUA, the “self-splicing fitness (ln)” value (30 °C) was -2.75 ± 0.26 and the “self-splicing fitness (ln)” value (37 °C) is -1.22 ± 0.21. Consider AUGUAGCAAUAUUACGACUU, for which the “self-splicing fitness (ln)” value is -0.0543 ± 0.089 (30 °C) and -0.312 ± 0.088 (37 °C). AUGUAGCAAUAUUACGAGCU: the “self-splicing fitness (ln)” value reads like this: (30 °C) -0.582 ± 0.14; (37 °C) -0.987 ± 0.2.

Consider AUGUAGCAAUAUUACGCACC, for which the “self-splicing fitness (ln)” value was -1.63 ± 0.15 (30 °C) and -0.228 ± 0.18 (37 °C).

For the sequence AUGUAGCAAUAUUACGCCCG, the “self-splicing fitness (ln)” value by setting is: (30 °C) -0.83 ± 0.22; (37 °C) -0.891 ± 0.33. For the sequence AUGUAGCAAUAUUACGCCGU, the “self-splicing fitness (ln)” value was -1.43 ± 0.14 (30 °C) and -0.29 ± 0.14 (37 °C). On the same counts, the results for AUGUAGCAAUAUUACGCGUA are -1.66 ± 0.13 and -0.708 ± 0.14. AUGUAGCAAUAUUACGCGUU: the “self-splicing fitness (ln)” value reads like this: (30 °C) -3.57 ± 0.18; (37 °C) -1.99 ± 0.17. Regarding AUGUAGCAAUAUUACGCUUC, the “self-splicing fitness (ln)” value (30 °C) is -2.5 ± 0.23 and the “self-splicing fitness (ln)” value (37 °C) is -2.2 ± 0.28.

For the sequence AUGUAGCAAUAUUACGGAAC, for the setting “37 °C”, the “self-splicing fitness (ln)” value is -1.16 ± 0.41. For the sequence AUGUAGCAAUAUUACGGACG, the “self-splicing fitness (ln)” value (30 °C) was -3.24 ± 0.2 and the “self-splicing fitness (ln)” value (37 °C) is -1.09 ± 0.13. Turning to AUGUAGCAAUAUUACGGACU, the “self-splicing fitness (ln)” value (30 °C) is -0.734 ± 0.11 and the “self-splicing fitness (ln)” value (37 °C) was -0.231 ± 0.14. With AUGUAGCAAUAUUACGGCAG, the “self-splicing fitness (ln)” value runs as follows: (30 °C) -0.715 ± 0.073; (37 °C) 0.288 ± 0.11. In the case of AUGUAGCAAUAUUACGGGGA, the “self-splicing fitness (ln)” value is -2.26 ± 0.21 (30 °C) and -2.48 ± 0.21 (37 °C).

Regarding AUGUAGCAAUAUUACGGGUC, the “self-splicing fitness (ln)” value was -3.49 ± 0.4 (30 °C) and -2.95 ± 0.43 (37 °C). Regarding AUGUAGCAAUAUUACGGUAU, the “self-splicing fitness (ln)” value (30 °C) is -1.24 ± 0.093 and the “self-splicing fitness (ln)” value (37 °C) is -0.0188 ± 0.11.

These data come from the supplement of paper PMC7877785.
